Fold increase in apparent oligomerization against wild-type CARD11 data for one substance are collected here from publication PMC2943563.

In the assay the target is myc-tagged murine CARD11 L225LI (murine) (UniProt Q8CIS0). In words: co-IP.

Turning to “myc-tagged murine CARD11 L225LI (from UniProt Q8CIS0 1-1159) (natural protein)”, the fold increase in apparent oligomerization against wild-type CARD11 came out at 3 fold.
